Settings in all cases: modification not given
In experiment [1] the target is MDM2 (synMDM2) 25-109 (Homo sapiens), Q00987. Kind of experiment: SPR. (In general: SPR reads the build-up and loss of mass on a sensor chip optically.)
For experiment [2], the target named is T1, MDMX (synMDMX) 24-108 (Homo sapiens), O15151.
T1 chain: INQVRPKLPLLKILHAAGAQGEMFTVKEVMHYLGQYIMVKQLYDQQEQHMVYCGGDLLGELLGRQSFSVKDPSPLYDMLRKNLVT
Kind of experiment: SPR.

The target in experiment [3] is MDM2 (synMDM2) 25-109 (Homo sapiens), Q00987. Kind of experiment: SPR. The source holds these as a separate data set.
Experiment [4] has the same target. Kind of experiment: SPR direct.

MDM2 (synMDM2) 25-109 (Homo sapiens), Q00987, sequence (Q00987 25-109): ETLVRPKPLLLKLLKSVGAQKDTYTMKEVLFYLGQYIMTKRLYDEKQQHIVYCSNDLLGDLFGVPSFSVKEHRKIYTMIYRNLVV

As for CYSFDCLWKCLAMGFSSGKCINSKCKC [stoppin-1], the results for the Kd in experiment [1], in experiment [2] and in experiment [3] were 790 nM, 994 nM and 320 nM, respectively.

In experiment [4], CYSFDCLWKCLAMGFRRGKCRRRKCKC [stoppin-2] registered a Kd of 493 nM.

As usually defined, the Kd is the constant that tells how readily two partners part at equilibrium.

The values are drawn from PMC3810402.
